Data set [1] concerns rheumatoid synovial cells. Particulars: cited from earlier work.
Data set [2] concerns IL-11 mediated signalling. Particulars: cited from earlier work.
In data set [3] the test system is primary human hepatocytes. Nature of the data set: Palmitate loading (lipotoxicity) of primary human hepatocytes. The class given is cell-based. As for the experimental part: Palmitate:BSA conjugated solution in the ratio of 6:1 was prepared as described earlier (Alsabeeh et al., 2018). Palmitate (0.5 mM) conjugated in fatty acids free BSA was used to treated cells as described in figure legends; 0.5% BSA solution was used as control. […]
Primary human hepatocytes were seeded on 8-well chamber slides (1×10^4 cells/well). For this experiment, cells were not serum-starved prior to palmitate treatment. 24 hours following palmitate stimulation, cells were washed, incubated with 25 μM of DCFDA solution (ab113851, Abcam) for 45 minutes at 37° C. in the dark, and rinsed with dilution buffer according to the manufacturer's protocol. Live cells with positive DCF staining were imaged with filter set appropriate for fluorescein (FITC) using a fluorescence microscope (Leica). […]
(§1) Western blots were carried out on total protein extracts from hepatocytes and liver tissues. Hepatocyte and liver tissue lysates were homogenized in RIPA Lysis and Extraction Buffer (89901, Thermo Scientific) containing protease and phosphatase inhibitors (Roche). Protein lysates were separated by SDS-PAGE and transferred to PVDF membranes. Protein bands were visualized using the ECL detection system (Pierce) with the appropriate secondary antibodies: anti-rabbit HRP or anti-mouse HRP.

The subject of the next data set is HFMCD-fed mice. Description: Hepatocyte-specific sgp130 expression in HFMCD-fed mice. Format: in vivo, mouse. As for the experimental part: (§2) Three weeks prior to starting either the WDF and HFMCD diet, mice were injected with an AAV8 virus encoding either albumin promoter-driven sgp130 (AAV8-Alb-sgp130), which contains the whole extracellular domain of mouse gp130 protein (amino acid 1 to 617), or albumin promoter alone (AAV8-Alb-Null) (FIGS. 35A, 41A, and 42A). AAV8-Alb-sgp130 administration induced high levels of sgp130 in the liver, which was also detectable in the peripheral circulation, suitable for both local and systemic inhibition of putative IL6 or IL11 trans-signaling (FIGS. 35B, 41B, 42B-42C).
6-8 weeks old C57BL/6N, Il11ra1−/− mice, and Il11ra1loxP/loxP and their respective control were fed with methionine- and choline-deficient diet supplemented with 60 kcal % fat (HFMCD, A06071301B16, Research Diets) for 4 weeks. Control mice received normal chow (NC, Specialty Feeds).
(§3) 6-8-week old male C57BL/6N mice (InVivos) were injected with 4×10^11 gc AAV8-Alb-sgp130 virus to induce hepatocyte specific expression of soluble gp130; control mice were injected with 4×10^11 gc AAV8-Alb-Null virus. 3 weeks following virus administration, mice were fed with HFMCD, WDF, or NC for durations that are described.

The subject of data set [4] is primary human hepatocytes. Nature of the data set: Stimulation of primary human hepatocytes with IL11, hyperIL11, hyperIL6. The class given is cell-based. The protocol:
Human hepatocytes (5200, ScienCell) were grown and maintained in hepatocyte media (5201, ScienCell) supplemented with 2% fetal bovine serum (FBS) and 1% Penicillin-streptomycin.
Primary human hepatocytes (5200, ScienCell) were maintained in hepatocyte medium ([…], ScienCell) supplemented with 2% fetal bovine serum, 1% Penicillin-streptomycin at 37° C. and 5% CO2. Hepatocytes (P2-P3) were serum-starved overnight unless otherwise specified in the methods prior to 24 hours stimulation with different doses of various recombinant proteins as described.
For surface IL11RA, IL6R, and gp130 analysis, primary human hepatocytes and THP-1 cells were stained with IL11RA, IL6R, or gp130 antibody and the corresponding Alexa Fluor 488 secondary antibody. Cell death analysis was performed by staining primary human hepatocytes with Dead Cell Apoptosis Kit with Annexin V FITC and PI (V13242, Thermo Fisher). PI+ve cells were then quantified with the flow cytometer (Fortessa, BD Biosciences) and analyzed with FlowJo version X software (TreeStar).
Alanine Aminotransferase (ALT) activity in the cell culture supernatant and mouse serum was measured using ALT Activity Assay Kit (ab105134, Abcam). Liver Glutathione (GSH) levels were measured using Glutathione Colorimetric Detection Kit (EIAGSHC, Thermo Fisher). Total hydroxyproline content in mouse livers was measured using Quickzyme Total Collagen assay kit (QZBtotco15, Quickzyme Biosciences). The levels of serum and liver triglycerides were measured using Triglyceride Assay Kit (ab65336, Abcam). Mouse serum levels of Aspartate Aminotransferase (AST) and cholesterol were measured using AST Assay Kit (ab105135, Abcam) and Cholesterol Assay Kit (ab65390; Abcam), respectively. All colorimetric assays were performed according to the manufacturer's protocol.
as §1

Another data set has as its system WDF-fed mice. Nature of the data set: Hepatocyte-specific sgp130 expression in WDF-fed mice. Format: in vivo, mouse. The protocol:
as §2
6-8 weeks old C57BL/6N, Il11ra1−/− mice, and Il11ra1loxP/loxP and their respective control were fed western diet (D12079B, Research Diets) supplemented with 15% weight/volume fructose in drinking water (WDF) for 16 weeks. Control mice received NC and tap water.
as §3

Turning to `COc1ccc2c(c1)c(CC(=O)O)c(C)n2C(=O)c1ccc(Cl)cc1` [indomethacin, reference compound], the “expression of IL-11” value in data set [1] is listed as “reduction in the expression of IL-11”.

B1: interferon-gamma: interferon-gamma (IFNγ) (protein, UniProt P01579 24-161, looked up)
Interferon gamma: QDPYVKEAENLKKYFNAGHSDVADNGTLFLGILKNWKEESDRKIMQSQIVSFYFKLFKNFKDDQSIQKSVETIKEDMNVKFFNSNKKKRDDFEKLTNYSVTDLNVQRKAIHELIQVMAELSPAAKTGKRKRSQMLFRG
For B1, in data set [1], the “expression of IL-11” value is on record as “reduction in the expression of IL-11”.

B2: W147A: IL-11 antagonist mutein, amino acid 147 mutated from tryptophan to alanine (protein, UniProt P20809 22-199, looked up, variant W147A)
Interleukin-11: PGPPPGPPRVSPDPRAELDSTVLLTRSLLADTRQLAAQLRDKFPADGDHNLDSLPTLAMSAGALGALQLPGVLTRLRADLLSYLRHVQWLRRAGGSSLKTLEPELGTLQARLDRLLRRLQLLMSRLALPQPPPDPPAPPLAPPSSAAGGIRAAHAILGGLHLTLDWAVRGLLLLKTRL
B2: the “antagonism of IL-11 mediated signalling” value in data set [2] is reported as “efficient blockade of IL-11 signalling”.

B3: sgp130: Soluble gp130, inhibitor of trans-signaling; human sgp130 Fc in vitro, mouse sgp130 expressed from AAV8-Alb-sgp130 in vivo (protein)
chain: ELLDPCGYISPESPVVQLHSNFTAVCVLKEKCMDYFHVNANYIVWKTNHFTIPKEQYTIINRTASSVTFTDIASLNIQLTCNILTFGQLEQNVYGITIISGLPPEKPKNLSCIVNEGKKMRCEWDGGRETHLETNFTLKSEWATHKFADCKAKRDTPTSCTVDYSTVYFVNIEVWVEAENALGKVTSDHINFDPVYKVKPNPPHNLSVINSEELSSILKLTWTNPSIKSVIILKYNIQYRTKDASTWSQIPPEDTASTRSSFTVQDLKPFTEYVFRIRCMKEDGKGYWSDWSEEASGITYEDRPSKAPSFWYKIDPSHTQGYRTVQLVWKTLPPFEANGKILDYEVTLTRWKSHLQNYTVNATKLTVNLTNDRYLATLTVRNLVGKSDAAVLTIPACDFQATHPVMDLKAFPKDNMLWVEWTTPRESVKKYILEWCVLSDKAPCITDWQQEDGTVHRTYLRGNLAESKCYLITVTPVYADGPGSPESIKAYLKQAPPSKGPTVRTKKVGKNEAVLEWDQLPVDVQNGFIRNYTIFYRTIIGNETAVNVDSSHTEYTLSSLTSDTLYMVRMAAYTDEGGKDGPEFTFTTPKFAQGEIE
modifications: left off: a dimerising Fc or GST
notes: human sgp130 Fc in vitro, mouse sgp130 expressed from AAV8-Alb-sgp130 in vivo
On to B3, for which the palmitate-induced signaling events result in data set [3] (Western blot) is “no effect”. Moreover, the “secretion of cytokines (IL11, IL6, CCL2, CCL5)” value in data set [3] (X209 2 μg/ml or sgp130 1 μg/ml) is recorded as “no effect”. In addition, in the data set with HFMCD-fed mice (HFMCD), the diet-induced signaling events result was “no effect”. Besides, in the data set with HFMCD-fed mice (HFMCD 4 weeks), the HFMCD-induced liver fibrosis result is recorded as “unchanged”; the “expression of inflammation and fibrosis genes” value is “unaffected”; the “hepatocyte damage markers (ALT and AST) and GSH” value is on record as “irrespective of sgp130 expression”; the steatosis result is recorded as “unaltered”. Further, the “IL11-induced hepatocyte death and signaling” value in data set [4] (IL11 20 ng/ml, sgp130 or sIL11RA 1 μg/ml) was “unaffected”. The “ALT release from IL11-stimulated hepatocytes” value in data set [4] (increasing doses of sgp130 or sIL11RA) is on record as “no effect”. Also, in data set [4] (sgp130 added), the “activation of signaling downstream of hyperIL6 (p-STAT3)” value is recorded as “blocked”, the “activation of signaling downstream of hyperIL11 (p-ERK/p-JNK)” value is on record as “blocked” and the “hepatotoxic effects of hyperIL11” value is on record as “inhibited”. Further, in data set [4] (sgp130 or sIL11RA 1 μg/ml), the “IL11 dose-dependent hepatocyte cell death on addition of decoy” value was “unaffected”. In the data set with WDF-fed mice (16 weeks of WDF), the “ALT, AST, collagen, fasting blood glucose, serum triglycerides, serum cholesterol, GSH” value is “none of these parameters were affected”; the “expression of pro-inflammatory and fibrosis genes” value was “unaffected”; the “obesity, liver mass and steatosis phenotypes” value is reported as “unaffected”. The diet-induced signaling events result with WDF-fed mice (WDF) was “no effect”.

B4: sIL-11R: soluble murine IL-11 receptor alpha chain (Curtis et al.) (protein, UniProt Q64385 24-372, looked up)
extracellular domain: SPCPQAWGPPGVQYGQPGRPVMLCCPGVSAGTPVSWFRDGDSRLLQGPDSGLGHRLVLAQVDSPDEGTYVCQTLDGVSGGMVTLKLGFPPARPEVSCQAVDYENFSCTWSPGQVSGLPTRYLTSYRKKTLPGAESQRESPSTGPWPCPQDPLEASRCVVHGAEFWSEYRINVTEVNPLGASTCLLDVRLQSILRPDPPQGLRVESVPGYPRRLHASWTYPASWRRQPHFLLKFRLQYRPAQHPAWSTVEPIGLEEVITDAVAGLPHAVRVSARDFLDAGTWSAWSPEAWGTPSTGPLQDEIPDWSQGHGQQLEAVVAQEDSPAPARPSLQPDPRPLDHRDPLEQVAVLA
modifications: extracellular domain
For the molecule B4, in data set [2], the “antagonism of IL-11 mediated signalling” value is listed as “capable of antagonizing the activity of IL-11”.

Source of the values: patent US11813311B2, “Treatment and prevention of metabolic diseases” (Singapore Health Services PTE LTD., priority 2019, dated 2023).
